These results are taken from the Immune Epitope Database (IEDB).

Test [1] deals with HLA-A*01:01. The test is described as follows: IEDB peptide-MHC binding, purified MHC/competitive/fluorescence; filed as Kd, often an IC50 or EC50 that approximates it; ≥ and ≤ were set here for values at or beyond the usual limits of such assays.
Test [2] addresses HLA-A*02:01. Briefly: IEDB peptide-MHC binding, purified MHC/competitive/fluorescence; ≥ and ≤ were set here for values at or beyond the usual limits of such assays. The following applies: source organism: Zaire ebolavirus.
The target of test [3] is HLA-A*24:02. The test is described as above.
Test [4] concerns the target HLA-B*15:01. The test is described as above.
In test [5] the target is HLA-A*69:01. Briefly: IEDB peptide-MHC binding, purified MHC/direct/fluorescence; filed as Kd, often an IC50 or EC50 that approximates it; ≥ and ≤ were set here for values at or beyond the usual limits of such assays.
For test [6], the target named is HLA-A*02:01. The test is described as above.
The target in test [7] is HLA-A*68:02. Described as above. The following applies: source organism: Escherichia coli O157:H7.
The target of test [8] is HLA-B*57:01. The test is described as above.
The target in test [9] is HLA-B*15:17. The test is described as above.
Test [10] deals with HLA-A*01:01. Described as above.
Test [11] has as its target HLA-A*31:01. Described as above.
In test [12] the target is HLA-B*27:05. The description is as above.
The target in test [13] is HLA-B*18:01. The description is as above. To be noted: source organism: Escherichia coli O157:H7.
Test [14] concerns the target HLA-B*07:02. Described as above.
In test [15] the target is HLA-A*11:01. The test is described as above.
The target in test [16] is HLA-B*40:01. Described as above.
For test [17], the target named is HLA-B*48:01. Described as above. To be noted: source organism: Escherichia coli O157:H7.
Test [18] addresses HLA-B*58:01. The test is described as above.
Test [19] deals with HLA-B*35:01. Briefly: IEDB peptide-MHC binding, purified MHC/competitive/fluorescence; filed as Kd, often an IC50 or EC50 that approximates it; ≥ and ≤ were set here for values at or beyond the usual limits of such assays.
For test [20], the target named is HLA-A*03:01. Briefly: IEDB peptide-MHC binding, purified MHC/direct/fluorescence; filed as Kd, often an IC50 or EC50 that approximates it; ≥ and ≤ were set here for values at or beyond the usual limits of such assays.
Test [21] deals with HLA-B*15:09. Described as above. To be noted: source organism: Influenza A virus(A/swine/Shandong/fNY/2003(H9N2)).
For test [22], the target named is HLA-A*24:02. Described as above. The following applies: source organism: Influenza A virus (A/equine/New York/1/1999(H3N8)).
Test [23] deals with HLA-B*15:01. Described as above.
Test [24] has as its target HLA-B*08:01. Described as above. The following applies: source organism: Influenza A virus (A/equine/New York/1/1999(H3N8)).
The target of test [25] is HLA-A*02:01. The test is described as follows: IEDB peptide-MHC binding, purified MHC/competitive/fluorescence; filed as Kd, often an IC50 or EC50 that approximates it; ≥ and ≤ were set here for values at or beyond the usual limits of such assays.
Test [26] addresses HLA-A*02:19. The description is as above.
Test [27] concerns the target HLA-A*03:01. The description is as above. To be noted: source organism: Yersinia pestis Nepal516.
Test [28] concerns the target HLA-B*15:01. The description is as above. To be noted: source organism: Yersinia pestis Nepal516.
For test [29], the target named is HLA-A*69:01. Described as above. The following applies: source organism: Human immunodeficiency virus 1.
For test [30], the target named is HLA-B*40:02. Briefly: IEDB peptide-MHC binding, purified MHC/competitive/radioactivity; filed as Kd, often an IC50 or EC50 that approximates it; ≥ and ≤ were set here for values at or beyond the usual limits of such assays. To be noted: source organism: SARS coronavirus Tor2.
Test [31] has as its target HLA-B*45:01. The test is described as above. The following applies: source organism: SARS coronavirus Tor2.
For test [32], the target named is HLA-B*44:03. Described as above. The following applies: source organism: SARS coronavirus Tor2.
Test [33] concerns the target HLA-B*18:01. The test is described as above. The following applies: source organism: SARS coronavirus Tor2.
The target in test [34] is HLA-B*40:01. Described as above. The following applies: source organism: SARS coronavirus Tor2.
For test [35], the target named is HLA-B*44:02. The description is as above. To be noted: source organism: SARS coronavirus Tor2.
In test [36] the target is HLA-A*11:01. The test is described as follows: IEDB peptide-MHC binding, purified MHC/competitive/fluorescence; ≥ and ≤ were set here for values at or beyond the usual limits of such assays. To be noted: source organism: Vaccinia virus Copenhagen.
The target of test [37] is HLA-B*15:17. The test is described as follows: IEDB peptide-MHC binding, purified MHC/competitive/fluorescence; filed as Kd, often an IC50 or EC50 that approximates it; ≥ and ≤ were set here for values at or beyond the usual limits of such assays. The following applies: source organism: Human immunodeficiency virus 1.
Test [38] concerns the target HLA-A*02:03. The description is as above. The following applies: source organism: Human immunodeficiency virus 1.
[39] abbreviates: source organism: Zaire ebolavirus.
Setting [40] is: source organism: Escherichia coli O157:H7.
Setting [41] is: source organism: Influenza A virus (A/equine/New York/1/1999(H3N8)).
[42] abbreviates: source organism: Bacillus anthracis.
Where [43] appears, read: source organism: Entamoeba histolytica HM-1:IMSS.
Setting [44] is: source organism: Human immunodeficiency virus 1.
The mark [45] stands for this setting: source organism: Yersinia pestis Nepal516.
Setting [46] is: source organism: Vaccinia virus Copenhagen.
The mark [47] stands for this setting: source organism: Bacillus anthracis str. A2012.

As to HSNASTLLY, in test [1] (source organism: Staphylococcus aureus subsp. aureus N315), the equilibrium dissociation constant (Kd) (as a rule, the concentration at which binding is half-saturated) was 0.0025 µM.
For YQATGFGTN, the values for the IC50 in test [2], in [3] (setting [39]) and in test [4] (setting [39]) were not below 146 µM, not below 231 µM and 22.7 µM, respectively.
Turning to KLTEAITAA, the IC50 (in general, the concentration at which inhibition is half-maximal) in [2] was 2.05 µM; in test [4] (setting [39]), not below 171 µM.
Consider QAFEAGVDF, for which the IC50 in test [2] is not below 475 µM; in test [3] (setting [39]) it was 29.4 µM; in [4] (setting [39]), 30.6 µM.
Regarding HEVHAVWPG, the Kd in test [5] (setting [40]), in [6] (setting [40]), in [7], in test [8] (setting [40]), in [9] (setting [40]) and in test [10] (setting [40]) was not below 20 µM in each case. Moreover, the Kd is not below 20 µM in [11] (setting [40]); not below 20 µM in test [12] (setting [40]); 0.193 µM in test [13]; not below 20 µM in test [14] (setting [40]); not below 20 µM in [15] (setting [40]); not below 20 µM in test [16] (setting [40]). In addition, the Kd in test [17] and in test [18] (setting [40]) was not below 20 µM each time.
For the sequence VAGGTSSVY, the Kd in test [19] (source organism: Influenza A virus (A/quail/Hong Kong/SF550/00(H6N1))) was 0.0109 µM; in test [5] (setting [41]), not below 20 µM; in test [6] (setting [41]), not below 20 µM; in test [20] (setting [41]), not below 20 µM; in [21] it was not below 20 µM; in test [10] (setting [41]), not below 20 µM. For the same sequence, the dissociation constant Kd is not below 20 µM in test [11] (setting [41]); not below 20 µM in test [22]; 0.129 µM in test [23] (source organism: Influenza A virus (A/Puerto Rico/8/34/Mount Sinai(H1N1))); not below 20 µM in test [12] (setting [41]); not below 20 µM in test [14] (setting [41]); not below 20 µM in test [15] (setting [41]). Also, the Kd was not below 20 µM in [16] (setting [41]), 2.89 µM in test [18] (setting [41]) and not below 20 µM in [24].
For RTIQGQRFW, the Kd in test [6] (setting [42]), in [20] (setting [42]), in test [8] (setting [42]), in test [9] (setting [42]), in test [10] (setting [42]) and in test [23] (setting [42]) was not below 20 µM in each case. Also, the Kd in test [12] (setting [42]), in test [14] (setting [42]) and in test [18] (setting [42]) was not below 20 µM in each case.
As to VKYLEGHGF, the IC50 in test [2] was not below 160 µM; in test [3] (setting [39]), 14.4 µM; in [4] (setting [39]), not below 72.1 µM.
Turning to SMFYGIFPS, the results for the Kd in test [25] (setting [43]) and in [26] (setting [43]) were 0.0002 µM and 0.285 µM, respectively.
For the sequence WASRELERF, the Kd in test [19] (setting [44]) is 0.0568 µM; in [18] (source organism: Human immunodeficiency virus type 1 BH10), 0.0275 µM.
CLLSHTLAY: the equilibrium dissociation constant (Kd) in test [27] stood at 0.0643 µM; in test [1] (setting [45]), 1.06 µM; in test [28], 0.225 µM; in test [19] (setting [45]), 0.0246 µM.
In the case of LTFGWCFKL, the Kd was 0.0465 µM in [29], 0.151 µM in test [25] (setting [44]) and 0.755 µM in test [26] (setting [44]).
On to SEQSLRLVDA, for which the Kd was determined as 0.47 µM in [30]; 0.00586 µM in test [31]; 0.436 µM in test [32]; 3.61 µM in [33]; 18.7 µM in test [34]; 0.0916 µM in test [35].
Take SQMTSTFIM: the IC50 in test [3] (setting [46]) was found to be 2.16 µM; in test [4] (setting [46]), 1.75 µM; in [36], 1.59 µM.
Turning to ITTFFTFAY, the Kd amounted to 0.14 µM in [1] (setting [47]) and 0.192 µM in test [19] (setting [47]).
With VETVSLAGSY, the Kd in test [30] was not below 70.8 µM; in test [31], 11.7 µM; in test [32] it was 1.29 µM; in test [33] it was 1.68 µM; in test [34], 17.7 µM; in [35] it was 3.22 µM.
As for LYNTVATLY, the Kd in [25] (setting [44]) was 1.16 µM; in test [37] it was not below 20 µM; in test [38] it was 0.571 µM.
